According to the supplement of paper PMC9170038:

Test system: MS2 coat protein
Assay: apparent KD of MS2 coat protein; designed switch direction (-1 OFF switch, 1 ON switch): -1; higher = weaker reporter binding
How it was run: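 Designed RNA switches sharing common flanks were transcribed on Illumina chips by stalled E. coli RNA polymerase. They were titrated with SNAP-549-labelled MS2 coat protein, from 0.7 or 1.5 nM doubling to 3 µM, in Tris-HCl pH 7.5 buffer with KCl, MgCl2, BSA, DTT, tRNA and Tween-20. Titrations ran without input, with 200 uM small-molecule ligand, or with an oligonucleotide input. The apparent KD of each design is the median over its clusters, after curve-fitting of normalised cluster fluorescence.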

[1] = input ligand: microRNA oligo, concentration not stated
[2] = Eterna round: R95, input ligand: FMN 200 uM
[3] = Eterna round: R95, input ligand: microRNA oligo, concentration not stated
[4] = Eterna round: R95, input ligand: none

Sequence	apparent KD of MS2 coat protein (input ligand: FMN 200 uM)	apparent KD of MS2 coat protein [1]	apparent KD of MS2 coat protein (input ligand: none)	apparent KD of MS2 coat protein [2]	apparent KD of MS2 coat protein [3]	apparent KD of MS2 coat protein [4]
AAAUAUCAUGUAGGAUAUGGUAGGCGAACCUUACCAGAAGGACAUGAGGAUCACCCAUGUGCUGAGUUGUCCGUAGACAGCUCU [Ex NG1 #4] (Eterna round: R96, puzzle: Exclusion NG 1)	74.1 nM	63.7 nM	78.7 nM			
AAAUGCAAGCAAAGAUCUUACAUGAGGAUCACCCAUGUGCUCGUCUUAUAAAGUACUAUCACGAAAGUGAUAGUACA [Sensor 3, v1 - 28] (puzzle: Sensor v3, turn-off variant 1)				25.9 nM	90.9 nM	18.1 nM
AAAUGGGCGUAGGAUAUGAGAUGGUCUAGCAGCUCAGAAGGACGCACAUGAGGAUCACCCAUGUGAUCGGACUA [Celebidi] (Eterna round: R96, puzzle: Exclusion 6)	281 nM	27.8 nM	34.8 nM			
AAAUGGGCGUAGGAUAUGAGAUGGUCUAGCAGCUCAGAAGGACGCACAUGAGGAUCACCCAUGUGAUCGGACUA [Celebidi] (puzzle: Exclusion 6)					29.7 nM	
AAAUUACAAGCAAGAUCCUACAUGAGGAUCACCCAUGUGCUCGUCUUAUAAAGUACUAUCACGAAAGUGAUAGUACA [Mat - Sensor v3 - turn-off var 1 - Eli Mod - D58] (puzzle: Sensor v3, turn-off variant 1)				256 nM	304 nM	329 nM
AAAUUAGCAAGUAGAUCCGACAUGAGGAUCACCCAUGUAAUCUAAUAUUACGCUGCAUGAGAGUGCGCUCGUCUUAG [Sensor-V1 #16] (Eterna round: R97, puzzle: Sensor, turn-off variant 1)	211 nM		238 nM			
AAAUUAGCAAGUAGGUCCGACAUGAGGAUCACCCAUGUAAUCUGAAAUUACGCUGCAUGAAAGUGCGCUCGUCUUAG [Sensor-V1 #10] (Eterna round: R97, puzzle: Sensor, turn-off variant 1)	111 nM		168 nM			
AAAUUAGCAAGUAGGUCCGACAUGAGGAUCACCCAUGUUAUCUGAAAUAACGCUGCAUGAUUGUGCGCUCGUCUUAG [Sensor-V1 #8] (Eterna round: R97, puzzle: Sensor, turn-off variant 1)	69.1 nM		73.1 nM			
AAAUUGGUAGAGGAUAUCGUACAGGAAACGAUGCGAGAAGGCUGCACAUGAGGAUCACCCAUGUUCAGUUGCGA [EX6 #41] (Eterna round: R97, puzzle: Exclusion 6)	17.9 nM		17.6 nM			
AAAUUGUGAGGAUAUCCAAUAUAUGACAUGAGGAUCACCCAUGUUUCCACUCGUACCUCCGGAGAAGGCACUUAAA [Ex5 #44] (Eterna round: R97, puzzle: Exclusion 5)	27.1 nM		25.5 nM			
AACAAGCUUUAAAGAUCCUACAUGAGGAUCACCCAUGUGCUCGUCUUGUAACGUACUGUGACGAAAGUCACGGUACG [JL TOV1 3.27] (Eterna round: R97, puzzle: Sensor, turn-off variant 1)	205 nM		278 nM			
AACAGUCUGGAGGAUAUGCUGGAUUAAUAUCUGGCAGAAGGCUUGACAUGAGGAUCACCCAUGUAAAUACUACC [Omei Ex6 A3] (Eterna round: R97, puzzle: Exclusion 6)	25.9 nM		20.8 nM			
AACAGUGUAGGAUAUACAGGGCAAACGGCACCCGUCUCCGGACAUGAGGAUCACCCAUGUAGAAGGACACCUAU [EX2 C.16] (Eterna round: R97, puzzle: Exclusion 2)	246 nM		47.4 nM			
AACAUGUGAGGAUAUGAGAACAGUCCGGAGGACUGUGUAAAUUAGAAGGCACAUGAGGAUCACCCAUGUGACCU [Laonar] (Eterna round: R97, puzzle: Exclusion 4)	32.6 nM		15.8 nM			
AACCUACAUGAGGAUCACCCAUGUGAGGAUAUAUUGGUAUUGAUGUUAUUUUUUAGAGGUAGAAGGCGCGUGAU [JR_Exc1_Sub022] (Eterna round: R97, puzzle: Exclusion 1)	15 nM		14 nM			
AACCUACAUGAGGAUCACCCAUGUGAGGAUAUAUUGUUAUGGAUGUUAUUUUGUAGUGGUAGAAGGCGCGUGAU [JR_Exc1_Sub024] (Eterna round: R97, puzzle: Exclusion 1)	19 nM		15.9 nM			
AACCUGAGGCAAAGCUUUAGGUGUACAUGAGGAUCACCCAUGUAGGAUAUGGUAAGCAAAGCUUACCAGAAGGACAUAAUGAUG [Mat - Exclusion NG 3 - Mod of JL - D48] (Eterna round: R96, puzzle: Exclusion NG 3)	134 nM	70.1 nM	90.2 nM			
AACCUGAGGCUUUGCUUUAGGUUUACAUGAGGAUCACCCAUGUAGGAUAUGGUAGGCAUAGCUUACCAGAAGGACAUGAAAAUU [Mat - Exclusion NG 3 - Mod of JL - D29] (Eterna round: R96, puzzle: Exclusion NG 3)	293 nM	34.1 nM	43.3 nM			

Sequence	apparent KD of MS2 coat protein (input ligand: FMN 200 uM)	apparent KD of MS2 coat protein [1]	apparent KD of MS2 coat protein (input ligand: none)	apparent KD of MS2 coat protein [2]	apparent KD of MS2 coat protein [3]	apparent KD of MS2 coat protein [4]
AACGAUCUAGGAUAUACAUGAGGAUCACCCAUGUAAGAGCUCAAACCGAGCUCCCUCUGUAGAAGGAGGUCAAA [Atquteuson] (puzzle: Exclusion 3)					48.5 nM	
AACUCUGAGAAGGAUAUUCAGUGGGAAACGACAGAAGAAGGUUUCACAUGAGGAUCACCCAUGUCGAAUAGUGA [EX6 #75] (Eterna round: R97, puzzle: Exclusion 6)	46.8 nM		48.8 nM			
AAGAAACAUGAGGAUCACCCAUGUGAGGAUAUGAAAAAUAAAAGAAAAGAAAGAAUAAUCAGAAGGCACAAAGG [Mat - Mod of Hog D10] (puzzle: Exclusion 1)				51.4 nM	37.3 nM	41.4 nM
AAGAAACAUGAGGAUCACCCAUGUGAGGAUAUGAAUAAGAAAAGAAAAGAAAGAAGAAUCAGAAGGCACAAAGG [salish99-ex1_r3_045] (puzzle: Exclusion 1)				49.5 nM	40.5 nM	37.2 nM
AAGAAACAUGAGGAUCACCCAUGUGAGGAUAUGACUAAGAAAAGAAAAGAAAGAAGAUUCAGAAGGCACAAAGG [salish99-ex1_r3_062] (puzzle: Exclusion 1)				91.2 nM	42.3 nM	46.1 nM
AAGAAACAUGAGGAUCACCCAUGUGAGGAUAUGAGAAAGAAAAGAAAAGAAAGAAGAUUCAGAAGGCACAAAGG [salish99-ex1_r3_035] (puzzle: Exclusion 1)				91.9 nM	43.9 nM	50 nM
AAGAAACAUGAGGAUCACCCAUGUGAGGAUAUGAUUAAGAAAAGAAAAGAAAGAAGAGUCAGAAGGCACAAAGG [salish99-ex1_r3_063] (puzzle: Exclusion 1)				84.9 nM	48.8 nM	61.8 nM
AAGAAACAUGAGGAUCACCCAUGUGAGGAUAUGCAAGAAAGAAAGAAAGAAAGAAGAAGCAGAAGGCACAAAGG [Gaius Turranius] (Eterna round: R96, puzzle: Exclusion 1)	84.7 nM	29.7 nM	50.7 nM			
AAGAACUAAGGAUAUACAUGAGGAUCACCCAUGUCUUUUACAUGUUACUGGCCCGCAUGUAGAAGGUAGAAAAG [Tianrasoed] (Eterna round: R96, puzzle: Exclusion 3)	182 nM	74.4 nM	85 nM			
AAGAACUUAGGAUAUACAUGAGGAUCACCCAUGUAGCUUCACUUGGGCCUGAGCCCGUGUAGAAGGAAGAAAAU [Arge] (Eterna round: R96, puzzle: Exclusion 3)	68.3 nM	47.6 nM	73.5 nM			
AAGAACUUAGGAUAUACAUGAGGAUCACCCAUGUAGCUUCACUUGGGCCUGAGCCCGUGUAGAAGGAAGAAAAU [Arge] (puzzle: Exclusion 3)					66 nM	
AAGAAGAAGUAAGGAUAUGAAGAUCUGGUGGUGACAUGAGGAUCACCCAUGUGAAAACGAUGAGAUCAGAAGGUACAAGAAGAA [AK ExNG2-3.4] (Eterna round: R96, puzzle: Exclusion NG 2)	86.4 nM	65.3 nM	77.8 nM			
AAGAAGAUAGGAUAUACGAGGAGAGAAGAGAAGAAAGGAGGACAUGAGGAUCACCCAUGUAGAAGGAUCAGGAA [JR_Exclu2_Sub061] (puzzle: Exclusion 2)				50.2 nM	41 nM	40.5 nM
AAGAAGCGAGGAUAUGCAAAAGAAAAGAAGAAGAAGAAAGAACAUGAGGAUCACCCAUGUAGAAGGCGCAAGAA [Mine, too!] (puzzle: Exclusion 2)				19.8 nM	20.8 nM	22.2 nM
AAGAAGUAAGGAUAUGGCCGGGUCCCUGGGUUUGGACCCGGCUAGAAGGUACAUGAGGAUCACCCAUGUAAGAA [Excls4-IX] (puzzle: Exclusion 4)					13.1 nM	
AAGAAUCUAGGAUAUUAGCGGGCCUACAUGAGGAUCACCCAUGUCGUGUCGCGGGUAUGCUGAGAAGGAGAGCACA [EX5 B.5] (Eterna round: R97, puzzle: Exclusion 5)	16.3 nM		16.3 nM			
AAGACAAAUGUAGGAUAUGCGUGGCGAAGCUAUGCAGAAGGACAUGAGGAUCACCCAUGUCUUAGCGUCUGCGUACAGAUGCUA [JL eng1 1.35 mod 9] (Eterna round: R96, puzzle: Exclusion NG 1)		12.1 nM				
